We go through 1 substance from US20170291942A1.

This experiment has as its target IL-6 protein (human) (UniProt P05231). The experiment in a line: Luminex based assay, biotin-IL-6 binding to solid phase sIL-6R/gp80.
UniProt P05231, sequence (P05231 30-212 limits assumed): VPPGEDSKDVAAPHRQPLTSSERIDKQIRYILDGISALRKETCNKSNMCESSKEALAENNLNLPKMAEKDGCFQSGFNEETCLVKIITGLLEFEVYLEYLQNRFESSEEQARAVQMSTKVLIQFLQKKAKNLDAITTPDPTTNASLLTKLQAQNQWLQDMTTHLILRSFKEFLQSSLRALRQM

Take CLB.IL-6/16 (antibody): the percent inhibition of bound biotin-IL-6 stood at 62%.
